Measurements from PMC3958441, “Isl1 and Pou4f2 Form a Complex to Regulate Target Genes in Developing Retinal Ganglion Cells” (PLoS ONE, 2014).

Key:
Pou4f2D5;Isl1 [1] = biological target: T1, Pou4f2D5;Isl1 (mouse;mouse, UniProt Q63934;P61372 125-411;1-349, |); experiment: EMSA; EMSA: 20 mM Tris-HCl pH 7.5, 50 mM NaCl, 10 mM DTT, 1 mM EDTA, 5% glycerol, 200 ng dI/dC, 200 ng each protein in 20 ul, 4 C, 30 min; 8% PAGE, 1x TBE, 4 C; conditions: protein: recombinant;recombinant, tags: His (C-terminal);His (C-terminal, pET-28a), copies: 1;1
T1 sequence 1: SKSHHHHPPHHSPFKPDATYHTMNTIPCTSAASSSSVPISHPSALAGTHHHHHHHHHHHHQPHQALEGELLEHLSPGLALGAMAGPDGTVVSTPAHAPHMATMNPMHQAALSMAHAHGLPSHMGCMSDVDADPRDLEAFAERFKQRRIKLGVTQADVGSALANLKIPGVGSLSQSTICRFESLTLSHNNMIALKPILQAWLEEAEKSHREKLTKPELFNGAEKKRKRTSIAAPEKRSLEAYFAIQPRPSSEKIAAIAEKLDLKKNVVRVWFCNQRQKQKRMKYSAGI
T1 sequence 2: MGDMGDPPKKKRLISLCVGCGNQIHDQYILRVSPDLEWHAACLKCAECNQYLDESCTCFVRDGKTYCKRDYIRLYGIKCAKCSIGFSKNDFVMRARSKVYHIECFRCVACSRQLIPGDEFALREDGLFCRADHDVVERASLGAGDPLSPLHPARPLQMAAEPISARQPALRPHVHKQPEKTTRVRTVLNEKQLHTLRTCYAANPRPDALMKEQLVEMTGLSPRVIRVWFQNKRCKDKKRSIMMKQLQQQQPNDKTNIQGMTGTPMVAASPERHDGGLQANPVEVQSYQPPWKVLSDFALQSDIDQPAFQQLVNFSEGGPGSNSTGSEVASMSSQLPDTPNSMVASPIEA

Isl1D3;Pou4f2 (Brn3b) = biological target: T2, Isl1D3;Pou4f2 (Brn3b) (mouse;mouse, UniProt P61372;Q63934 170-349;1-411, |); experiment: EMSA; ternary complex; EMSA: 20 mM Tris-HCl pH 7.5, 50 mM NaCl, 10 mM DTT, 1 mM EDTA, 5% glycerol, 200 ng dI/dC, 200 ng each protein in 20 ul, 4 C, 30 min; 8% PAGE, 1x TBE, 4 C; conditions: protein: recombinant;recombinant; tags: His (C-terminal);His (C-terminal, pET-28a); copies: 1;1; (radiolabel, Klenow fill-in); 5' overhang 1 nt at both ends before fill-in
T2 sequence 1: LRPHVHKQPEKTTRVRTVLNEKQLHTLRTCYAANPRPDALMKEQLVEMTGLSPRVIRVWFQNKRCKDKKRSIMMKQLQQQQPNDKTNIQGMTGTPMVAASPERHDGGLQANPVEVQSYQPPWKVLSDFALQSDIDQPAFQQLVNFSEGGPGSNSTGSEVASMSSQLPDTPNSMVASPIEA
T2 sequence 2: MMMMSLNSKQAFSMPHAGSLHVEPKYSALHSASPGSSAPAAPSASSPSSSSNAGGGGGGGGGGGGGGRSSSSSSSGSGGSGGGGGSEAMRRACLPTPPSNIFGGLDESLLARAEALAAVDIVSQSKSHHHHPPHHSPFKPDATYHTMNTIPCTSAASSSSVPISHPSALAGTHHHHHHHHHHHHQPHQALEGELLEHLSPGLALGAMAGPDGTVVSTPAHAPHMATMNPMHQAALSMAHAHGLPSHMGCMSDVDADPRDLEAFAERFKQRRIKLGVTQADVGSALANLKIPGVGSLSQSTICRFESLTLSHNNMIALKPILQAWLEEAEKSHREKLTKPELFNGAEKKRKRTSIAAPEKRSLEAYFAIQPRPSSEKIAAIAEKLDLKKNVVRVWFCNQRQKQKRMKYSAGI

Isl1D4;Pou4f2 (Brn3b) = biological target: T3, Isl1D4;Pou4f2 (Brn3b) (mouse;mouse, UniProt P61372;Q63934 146-349;1-411, |); experiment: as above; conditions: protein: recombinant;recombinant; tags: His (C-terminal);His (C-terminal, pET-28a); copies: 1;1; (radiolabel, Klenow fill-in); 5' overhang 1 nt at both ends before fill-in
T3 sequence 1: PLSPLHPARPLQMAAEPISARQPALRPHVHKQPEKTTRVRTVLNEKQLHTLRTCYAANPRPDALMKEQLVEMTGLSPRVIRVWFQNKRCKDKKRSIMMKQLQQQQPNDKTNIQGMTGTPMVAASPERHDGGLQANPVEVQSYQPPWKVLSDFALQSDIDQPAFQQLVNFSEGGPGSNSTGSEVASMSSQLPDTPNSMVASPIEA
T3 sequence 2: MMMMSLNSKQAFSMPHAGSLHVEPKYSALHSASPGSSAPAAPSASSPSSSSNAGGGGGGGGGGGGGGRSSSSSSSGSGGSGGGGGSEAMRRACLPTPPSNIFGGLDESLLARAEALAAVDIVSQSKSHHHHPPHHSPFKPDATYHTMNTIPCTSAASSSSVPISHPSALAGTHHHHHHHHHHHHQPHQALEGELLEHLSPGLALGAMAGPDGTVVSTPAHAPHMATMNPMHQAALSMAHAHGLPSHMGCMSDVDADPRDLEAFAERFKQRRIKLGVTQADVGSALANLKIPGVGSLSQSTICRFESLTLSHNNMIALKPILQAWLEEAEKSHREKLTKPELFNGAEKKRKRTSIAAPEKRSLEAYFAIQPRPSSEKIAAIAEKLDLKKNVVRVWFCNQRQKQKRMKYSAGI

Pou4f2 (Brn3b);Isl1 [2] = biological target: T4, Pou4f2 (Brn3b);Isl1 (mouse;mouse, UniProt Q63934;P61372 1-411;1-349, |); experiment: as above; conditions: protein: recombinant;recombinant; tags: His (C-terminal, pET-28a);His (C-terminal, pET-28a); copies: 1;1; (radiolabel, Klenow fill-in); 5' overhang 1 nt at both ends before fill-in
T4 sequence 1: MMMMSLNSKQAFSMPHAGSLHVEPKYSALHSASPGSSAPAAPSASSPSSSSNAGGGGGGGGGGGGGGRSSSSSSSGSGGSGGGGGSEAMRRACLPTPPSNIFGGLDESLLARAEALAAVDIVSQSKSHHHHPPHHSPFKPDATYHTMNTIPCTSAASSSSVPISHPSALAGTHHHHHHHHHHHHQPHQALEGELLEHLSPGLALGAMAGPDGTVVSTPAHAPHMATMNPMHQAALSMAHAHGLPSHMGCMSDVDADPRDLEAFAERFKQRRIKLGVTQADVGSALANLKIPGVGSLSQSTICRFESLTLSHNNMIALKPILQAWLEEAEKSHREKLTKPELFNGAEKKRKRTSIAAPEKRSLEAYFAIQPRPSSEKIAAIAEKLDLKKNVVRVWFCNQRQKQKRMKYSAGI
T4 sequence 2: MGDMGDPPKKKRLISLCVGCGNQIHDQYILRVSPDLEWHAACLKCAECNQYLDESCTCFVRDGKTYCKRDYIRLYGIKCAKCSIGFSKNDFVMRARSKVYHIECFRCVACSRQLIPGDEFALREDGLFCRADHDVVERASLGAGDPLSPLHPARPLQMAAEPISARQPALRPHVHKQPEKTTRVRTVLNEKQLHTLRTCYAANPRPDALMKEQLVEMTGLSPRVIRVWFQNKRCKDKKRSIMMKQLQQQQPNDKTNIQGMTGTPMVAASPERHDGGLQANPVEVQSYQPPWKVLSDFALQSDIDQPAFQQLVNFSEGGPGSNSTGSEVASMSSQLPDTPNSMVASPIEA

Pou4f2D4;Isl1 = biological target: T5, Pou4f2D4;Isl1 (mouse;mouse, UniProt Q63934;P61372 169-411;1-349, |); experiment: as above; conditions: protein: recombinant;recombinant; tags: His (C-terminal);His (C-terminal, pET-28a); copies: 1;1; (radiolabel, Klenow fill-in); 5' overhang 1 nt at both ends before fill-in
T5 sequence 1: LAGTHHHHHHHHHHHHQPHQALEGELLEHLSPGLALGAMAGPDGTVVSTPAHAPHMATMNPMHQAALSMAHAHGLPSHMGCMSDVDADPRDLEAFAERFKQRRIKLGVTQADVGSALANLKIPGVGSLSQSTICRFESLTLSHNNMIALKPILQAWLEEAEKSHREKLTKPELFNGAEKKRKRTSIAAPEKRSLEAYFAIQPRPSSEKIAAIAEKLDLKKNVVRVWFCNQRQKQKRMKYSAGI
T5 sequence 2: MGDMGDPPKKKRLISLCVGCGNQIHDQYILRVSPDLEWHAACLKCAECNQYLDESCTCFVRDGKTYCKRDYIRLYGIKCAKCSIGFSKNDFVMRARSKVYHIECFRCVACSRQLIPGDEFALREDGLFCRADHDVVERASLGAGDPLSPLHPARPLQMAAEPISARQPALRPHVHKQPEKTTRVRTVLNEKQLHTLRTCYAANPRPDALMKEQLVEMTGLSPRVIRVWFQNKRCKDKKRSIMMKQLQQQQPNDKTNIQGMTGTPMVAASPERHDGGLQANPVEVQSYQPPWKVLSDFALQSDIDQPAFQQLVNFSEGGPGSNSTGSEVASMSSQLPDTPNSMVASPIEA

Pou4f2D5;Isl1 [3] = biological target: T1, Pou4f2D5;Isl1; experiment: as above; conditions: protein: recombinant;recombinant, tags: His (C-terminal);His (C-terminal, pET-28a), copies: 1;1
Isl1D5;Pou4f2 (Brn3b) = biological target: T6, Isl1D5;Pou4f2 (Brn3b) (mouse;mouse, UniProt P61372;Q63934 74-349;1-411, |); experiment: as above; conditions: protein: recombinant;recombinant; tags: His (C-terminal);His (C-terminal, pET-28a); copies: 1;1; (radiolabel, Klenow fill-in); 5' overhang 1 nt at both ends before fill-in
T6 sequence 1: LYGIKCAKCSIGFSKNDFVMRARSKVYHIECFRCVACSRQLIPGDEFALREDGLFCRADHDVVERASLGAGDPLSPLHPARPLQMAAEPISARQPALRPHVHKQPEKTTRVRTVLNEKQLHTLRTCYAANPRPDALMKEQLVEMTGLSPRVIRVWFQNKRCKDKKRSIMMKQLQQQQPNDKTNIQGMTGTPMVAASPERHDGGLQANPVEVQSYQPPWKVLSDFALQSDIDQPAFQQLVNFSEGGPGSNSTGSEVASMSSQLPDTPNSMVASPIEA
T6 sequence 2: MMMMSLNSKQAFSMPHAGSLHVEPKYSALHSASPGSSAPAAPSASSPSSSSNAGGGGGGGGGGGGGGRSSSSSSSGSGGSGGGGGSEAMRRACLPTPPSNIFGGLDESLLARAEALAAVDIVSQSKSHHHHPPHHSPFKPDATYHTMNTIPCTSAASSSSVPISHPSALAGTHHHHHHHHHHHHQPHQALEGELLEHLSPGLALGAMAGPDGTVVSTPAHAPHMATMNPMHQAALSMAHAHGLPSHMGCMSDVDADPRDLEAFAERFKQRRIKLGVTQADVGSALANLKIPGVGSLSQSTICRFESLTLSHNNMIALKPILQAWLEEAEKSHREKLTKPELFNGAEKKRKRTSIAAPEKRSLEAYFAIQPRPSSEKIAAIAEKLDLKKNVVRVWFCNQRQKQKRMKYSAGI

Pou4f2 (Brn3b);Isl1 [4] = biological target: T4, Pou4f2 (Brn3b);Isl1; experiment: EMSA; EMSA: 20 mM Tris-HCl pH 7.5, 50 mM NaCl, 10 mM DTT, 1 mM EDTA, 5% glycerol, 200 ng dI/dC, 200 ng each protein in 20 ul, 4 C, 30 min; 8% PAGE, 1x TBE, 4 C; conditions: protein: recombinant;recombinant; tags: His (C-terminal, pET-28a);His (C-terminal, pET-28a); copies: 1;1; (radiolabel, Klenow fill-in); 5' overhang 1 nt at both ends before fill-in
[5] = (radiolabel, Klenow fill-in), 5' overhang 1 nt at both ends before fill-in

B1: IRX6(M) (dsDNA)
DNA 1: TACTACTGCTTCGTTGCTTGCAAACATTTC
DNA 2: GGAAATGTTTGCAAGCAACGAAGCAGTAGTA
- binding result (Pou4f2D5;Isl1 [1]; (radiolabel, Klenow fill-in), one end blunt, lower strand 5' overhang 1 nt before fill-in): no binding

B2: CBRN3(W) (dsDNA)
DNA 1: GATCTCTCCTGCATAATTAATTACCCCCGGAT
DNA 2: GATCCGGGGGTAATTAATTATGCAGGAGAGAT
- binding result (Isl1D3;Pou4f2 (Brn3b)): binds
- binding result (Isl1D4;Pou4f2 (Brn3b)): binds
- binding result (Pou4f2 (Brn3b);Isl1 [2]): binds
- binding result (Pou4f2D4;Isl1): binds
- binding result (Pou4f2D5;Isl1 [3]; [5]): binds
- binding result (Isl1D5;Pou4f2 (Brn3b)): binds

B3: IRX6(W) (dsDNA)
DNA 1: GTACTACTAATTAATTAATTGCAAACATTTC
DNA 2: GGAAATGTTTGCAATTAATTAATTAGTAGTA
- binding result (Pou4f2D5;Isl1 [3]; [5]): binds

B4: CBRN3(M) (dsDNA)
DNA 1: GATCTCTCCTGCGCGGTTGACTACCCCCGGAT
DNA 2: GATCCGGGGGTAGTCAACCGCGCAGGAGAGAT
- binding result (Pou4f2 (Brn3b);Isl1 [4]): no binding

B5: EBF3(M) (dsDNA)
DNA 1: GTGCGTTGCTATTTTCGTTGCTCGGGAAAA
DNA 2: TTTTCCCGAGCAACGAAAATAGCAACGCAC
- binding result (Pou4f2D5;Isl1 [1]; (radiolabel, Klenow), blunt): no binding

B6: SBRN3(M) (dsDNA)
DNA 1: GCACACGACCCAGCGCGTTGACAACCGGGCTG
DNA 2: GCAGCCCGGTTGTCAACGCGCTGGGTCGTGTG
- binding result (Pou4f2 (Brn3b);Isl1 [4]): no binding

B7: EBF3(W) (dsDNA)
DNA 1: GTGCGTTAATATTTTAATTAATCGGGAAAA
DNA 2: TTTTCCCGATTAATTAAAATATTAACGCAC
- binding result (Pou4f2D5;Isl1 [3]; (radiolabel, Klenow), blunt): binds

B8: SBRN3(W) (dsDNA)
DNA 1: GCACACGACCCAATGAATTAATAACCGGGCTG
DNA 2: GCAGCCCGGTTATTAATTCATTGGGTCGTGTG
- binding result (Isl1D3;Pou4f2 (Brn3b)): binds
- binding result (Isl1D4;Pou4f2 (Brn3b)): binds
- binding result (Pou4f2 (Brn3b);Isl1 [2]): binds
- binding result (Pou4f2D4;Isl1): binds
- binding result (Pou4f2D5;Isl1 [3]; [5]): binds
- binding result (Isl1D5;Pou4f2 (Brn3b)): binds
